This experiment addresses T1, Human Bcl-xL-ΔTM (native amino acid sequence without the transmembrane domain) (human).
T1 construct: ~24.5 kDa; Unlabeled in the NMR titration; source: cloned into pET21a; not shown: His6, N-terminal, kept
In words: NMR titration; [1H-15N]-SOFAST-HMQC at 298 K, 600 MHz; 15N-labelled chimera at 100 µM mixed with unlabeled Bcl-xL-ΔTM (stock 900 µM, pH 6.8) at chimera:Bcl-xL molar ratios 1:0, 1:0.5, 1:1, 1:2; 10% D2O; slow exchange, the upper limit of KD estimated from the chemical shift difference assuming diffusion-controlled kon. The conditions noted are these: both partners purified.

In general, Kd refers to the concentration at which binding is half-saturated. Broadly, the koff is the rate constant with which the complex falls apart.

B1: sapC-PUMA chimera (saposin C linked to the BH3 domain of PUMA) (other)
chain: SDVYCEVCEFLVKEVTKLIDNNKTEKEILDAFDKMCSKLPKSLSEECQEVVDTYGSSILSILLEEVSPELVCSMLHLCSGGGGEEQWAREIGAQLRRMADDLNAQYER
modifications: Three disulfide bonds in the sapC part. Chimera numbering of sapC + 307 = P07602 numbering (S4-G83 = 311-390). Vector residues 1-3 (letters only in Figure 2) and the C-terminal thrombin-site remnant …
As for B1, the Kd was < 0.049 µM and the koff was < 49 s⁻¹.

(Values after article PMC8072984, “Engineering of Saposin C Protein Chimeras for Enhanced Cytotoxicity and Optimized Liposome Binding Capability” (Pharmaceutics, 2021).)
